Results reported in patent US8487082B2, “Synthetic scFv analogue to the 6313/G2 (anti angiotensin II type 1 receptor) monoclonal antibody variable regions” (Queen Mary & Westfield College, priority 2008, dated 2013).

Assays:
[1] = system: breast cancer cells; assay: Breast cancer cell proliferation (summary statement); format: cell-based
Description: Confluent cell monolayers were removed from tissue culture flasks using trypsin/EDTA. Cells (15×10^3 per well) were seeded into 96 well tissue culture plates containing the appropriate medium for each cell line. […] Cell viability was assessed by the ability of metabolically active cells to reduce 2,3-bis[2-Methoxy-4-nitro-5-sulphophenyl]-2H-tetrazolium-5-carboxyanilide inner salt (XTT) to the coloured formazan product. Absorbance was measured using a Multiskan Ascent microplate reader (Thermo Labsystem, Helsinki, Finland) at a wavelength of 450 nm and a reference wavelength of 630 nm. Each measurement was performed in triplicate. IC50s were calculated using a non-linear regression formula using GraphPad Prism v4.0 software (GraphPad Software Inc, San Diego Calif., USA).

[2] = system: T-47D breast cancer cells; assay: Fluorimetric invasion assay (QCM cell invasion, ECM); format: cell-based; details: for T-47D cell invasion through ECM: scFv alone, 50 and 250 nmol/L, 24 h
Description: The method used is QCM™ Cell invasion assay (Chemicon Cat No. ECM555). This uses fluorimetric detection of cells which have broken through a reconstituted basement membrane matrix proteins (ECM) derived from the Engelbreth-Holm-Swam (EHS) mouse tumour (Repesh LA (1989) Invasion Metastasis 9: 192-208)
ECM-coated inserts were placed in 96-well plates and 100 μl of prewarmed serum-free medium added to the interior of the inserts in order to hydrate the ECM layer over 1-2 h at room temperature. Media was removed and 150 μl of serum free medium added to the wells of the 96-well plate housing the inserts. 100 μl of medium containing 10^5 cells/per insert was then introduced. The plate was covered and incubated at 37 C in a 5% CO2/95% air humidified incubator for 24 h. After removing cells from inside the insert and rinsing with PBS, the insert was replaced into a 96-well plate containing Cell Detachment Solution and incubated at 37 C for 30 min. Cells that had invaded through the ECM to the bottom of the insert were, in this way, dislodged from the insert for subsequent lysis and measurement of fluorescence using a 480/520 filter set in a Fluostar Optima fluorimeter (BMG Labtech), according to manufacturer's instructions.

[3] = Body weight and mortality in xenograft assay; format: in vivo, mice; details: for body weight: MCF7 xenograft mice
Description: Mice were injected s.c. on the right-flank, with 150 μl sterile PBS containing 7.5×10^6 MCF-7 cells. Tumour cells were allowed to grow for 4 weeks without hormone support, thereafter mice received weekly s.c. injections of 17β-oestradiol valerate (0.1 mg/Kg body weight), in sesame oil (Kasukabe et al., Breast Cancer Res. 7(6) R1097-110 (2005)) for a further 8 weeks. Animals were monitored daily for general health, and body weights were measured twice-weekly. Tumour size was measured 3 times per week with slide callipers, and volumes were calculated as (L×W^2)/2, where L and W are the major and minor diameters, respectively. Once tumour volumes reached 150 to 200 mm^3, mice were randomized to treatment and control groups of 8 to 10 per group. Mice were treated by subcutaneous injections of R6313/G2 in sterile PBS (0.1 ml) at doses of 0.4 mg/kg (13 nmol/kg), 0.8 mg/kg (27 nmol/Kg), and 1.36 mg/kg (45.3 nmol/kg) body weight, twice per day for seven days. Control mice received sterile PBS. At the termination of the study, animals were sacrificed by cervical dislocation. Relative body weights (%) were calculated as (Wt/Wi)×100, where Wt is the body weight at any given time and Wi is the body weight at treatment initiation. Net tumour volume was calculated as Vt-Vi, where Vt is the tumour volume at any given time and Vi is the tumour volume at the start of treatment, and expressed as a percentage of Vi.

[4] = system: T47D cells; assay: In vitro hollow fiber assay; format: cell-based; details: in the presence of angiotensin II, 48 h
Description: Hollow Fiber procedures followed the method of Hollingshead. (Hollingshead et al Life Sci 57 131-41 (1995)).
Polyvinylidene difluoride (PVDF) hollow fibers (500 kDa cut-off, 1 mm inner diameter; Spectrum Europe B.V., Breda, Netherlands) were flushed through with 70% ethanol using a blunt 21 gauge needle and 10 ml syringe. Fibers were then immersed in 70% ethanol for 72 hours, flushed through again with 70% ethanol, then distilled water, and then autoclaved at 131° C. Finally, before loading cell suspensions, fibers were flushed through with RPMI 1640 culture medium. Cells (MCF-7, T47D, and MDA-MB-231) were introduced into fibers at densities of 2.5 to 3.0×10^6 cells/ml. Fibers were then heat-sealed at 2 cm intervals and placed in Petri dishes containing 3 ml of the cell appropriate medium.
Cell viability was measured using a modified MTT assay. Fibers were incubated in RPMI 1640 with 20% FBS containing 1 mg/ml MTT, and incubated at 37° C. under […], 5% CO2 for 4 hours. The reagent was aspirated, and 2 ml sterile filtered 2.5% protamine sulphate (0.9 g NaCl, 2.5 g protamine sulphate in 100 ml water) was added. Specimens were stored at 4° C. for a minimum of 24 hours in the dark to fix the formazan product. Fresh protamine sulphate (2.5%) was added and fibers were stored for a further 2 to 4 hours at 4° C. Each fiber was transferred to a well in a 24 well plate, cut in half and air-dried overnight, protected from light. Dimethyl sulphoxide (DMSO) (300 μl) was added to each well and the formazan product extracted. An aliquot (190 μl) from each well was transferred to a 96 well plate and absorbance read at 540 nm using a Multiskan Ascent photometric microplate reader (Thermo labsystem). Treated values were calculated as a percentage of the controls.

[5] = molecular target: T1, antigenic peptide […] (AT1 receptor) (Rattus norvegicus, UniProt P25095); assay: Antigen ELISA during panning of scFv library; format: binding
T1 construct: 96 well plates coated with the original antigenic peptide ([…]
Description: The 6313/G2 mouse monoclonal antibody hybridoma was grown as previously described (Barker et at J. Mol. Endocrinol. 11 241-245 (1993)). A pool of cDNA derived from mRNA was used to obtain heavy and light chains by PCR. A linker fragment encoding (Gly4Ser)3 was used to assemble the scFv library of inserts and a phage display library was created by directionally cloning these inserts into the pCANTAB 5 E phagemid vector (Amersham Pharmacia, High Wycombe, UK). An E-tag for the expressed sequence GAPVPYPDPLEPR (SEQ ID NO: 11) was included in this vector and used in subsequent panning and purification steps. The phagemid library was then used to transform TG1 E. coli, and phagemid rescue was carried out using the M13K07 helper phage followed by several rounds of panning Positive expressing clones were identified by ELISA using 96 well plates coated with the original antigenic peptide (EDGIKRIQDD; SEQ ID NO:1) and an anti-E-tag antibody (Amersham Pharmacia) detected using an HRP-linked secondary antibody. One particular clone was taken forward for expression and purification and functional assessment on the basis of giving the highest signal in the antigen ELISA.

B1: R6313/G2: murine scFv analogue of the 6313/G2 anti-AT1 receptor monoclonal antibody variable domains, SEQ ID NO:15 (protein)
scFv: YAAQPAMAQVKLQQSGPELEKPGASVKISCKASGYSFTGYNMNWVKQSNGKSLEWIGNIDPYYGGTTYNQKFKGKATLTVDKSSSTAYMQLKSLTSEDSAVYYCAREVDYWGQGTTVTVSSGGGGSGGGGSGGGGSDIELTQSPASLAVSLGQRATISYRASKSVSTSGYSYMHWNQQKPGQPPRLLIYLVSNLESGVPARFSGSGSGTDFTLNIHPVEEEDAATYYCQHIRELTRSEGTKLEIKRAAAGAPVPY
modifications: 12D
breast cancer cell proliferation ([1]; in the absence of angiotensin II): no effect | breast cancer cell proliferation ([1]; in the presence of up to 100 nmol angiotensin II per L): significantly inhibits breast cancer cell proliferation | inhibition of cell invasion ([2]; 250 nmol/L R6313/G2 with angiotensin II 100 nmol/L, 24 hour assay period): up to 25% | effect on T-47D cell invasion in the presence of angiotensin II ([2]; 250 nmol/L scFv, angiotensin II 100 nmol/L): significantly more pronounced | T-47D cell invasion through ECM [2]: inhibits T-47D cell invasion | T-47D cell invasion through ECM ([2]; listed as R6313/G2 clone12D): significantly inhibits T-47D cell invasion | other effects in xenograft mice ([3]; 13 nmol/kg): without other effects | mortality ([3]; 0.4 mg/kg twice per day, during the treatment period): no mortality | mortality ([3]; 0.8 mg/kg group, by day 8, n=8): four died by day 8 | mortality ([3]; 0.8 mg/kg twice per day, during the treatment period): no mortality | mortality ([3]; 1.36 mg/kg group, by day 8): all died by day 8 | body weight ([3]; 0.4 mg/kg (13 nmol/kg) twice per day): no weight loss | body weight ([3]; 0.8 mg/kg (27 nmol/kg) twice per day): no weight loss | body weight ([3]; 1.36 mg/kg (45.3 nmol/kg) twice per day): significantly reduced | cell survival in hollow fibers in vitro [4]: dose dependently inhibited survival | activity of clones (preliminary studies) [5]: highest activity
